Laboratory results reported in patent publication US20180185504A1 (Regeneron, published 2018).

T1: human PRLR on cells (endogenous on T47D, T47D#11, MCF7); introduced in HEK293/hPRLR/STAT5-Luc, 293/hPRLR, … (human, UniProt P16471 25-622)
T1 sequence: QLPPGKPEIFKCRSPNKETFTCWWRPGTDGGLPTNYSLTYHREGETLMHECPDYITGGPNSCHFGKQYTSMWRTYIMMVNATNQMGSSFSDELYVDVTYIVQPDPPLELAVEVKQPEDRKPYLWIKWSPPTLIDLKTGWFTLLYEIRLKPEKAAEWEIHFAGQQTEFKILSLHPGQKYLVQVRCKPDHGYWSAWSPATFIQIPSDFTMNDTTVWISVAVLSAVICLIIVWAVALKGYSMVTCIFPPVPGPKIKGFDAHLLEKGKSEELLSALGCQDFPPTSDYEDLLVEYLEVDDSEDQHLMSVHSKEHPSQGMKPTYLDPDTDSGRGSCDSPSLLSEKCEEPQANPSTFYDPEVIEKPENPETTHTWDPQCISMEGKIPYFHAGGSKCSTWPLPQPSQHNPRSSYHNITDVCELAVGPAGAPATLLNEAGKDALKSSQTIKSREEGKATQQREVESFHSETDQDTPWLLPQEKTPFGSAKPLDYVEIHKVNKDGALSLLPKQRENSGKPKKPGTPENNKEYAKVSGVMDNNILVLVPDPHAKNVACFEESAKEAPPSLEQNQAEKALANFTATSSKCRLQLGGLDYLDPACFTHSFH

T2: mouse PRLR construct with an HA tag on HEK293/mPRLR cells (mouse, UniProt Q08501 20-608)
T2 construct: whole, on cells; stably transfected into HEK293
T2 sequence (looked up): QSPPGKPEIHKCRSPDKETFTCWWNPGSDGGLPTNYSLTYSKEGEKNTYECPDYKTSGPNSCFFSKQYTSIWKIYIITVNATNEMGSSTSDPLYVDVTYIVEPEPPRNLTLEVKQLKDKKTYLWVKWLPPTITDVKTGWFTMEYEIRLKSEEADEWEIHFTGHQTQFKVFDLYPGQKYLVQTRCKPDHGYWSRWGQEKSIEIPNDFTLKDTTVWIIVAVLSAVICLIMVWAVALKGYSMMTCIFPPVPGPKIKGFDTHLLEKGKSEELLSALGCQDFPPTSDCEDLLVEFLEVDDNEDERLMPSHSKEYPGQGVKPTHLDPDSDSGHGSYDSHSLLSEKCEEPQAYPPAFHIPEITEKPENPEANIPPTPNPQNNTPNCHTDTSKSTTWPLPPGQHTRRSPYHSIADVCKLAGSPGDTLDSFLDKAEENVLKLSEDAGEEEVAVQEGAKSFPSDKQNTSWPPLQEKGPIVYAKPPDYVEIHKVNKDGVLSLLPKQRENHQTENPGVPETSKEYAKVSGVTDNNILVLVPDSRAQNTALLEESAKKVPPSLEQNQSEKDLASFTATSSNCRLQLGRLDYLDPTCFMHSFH


Key:
[1] = biological target: T1, human PRLR on cells (endogenous on …); experiment: cell-based or functional assay
[2] = biological target: T2, mouse PRLR construct with an HA tag on …; experiment: FACS on HEK293/mPRLR cells
[3] = biological target: T1, human PRLR on cells (endogenous on …); experiment: imaging of alexa488 intensity on T47D cells
Protocol: Briefly, 20,000 T47D cells were seeded in collagen coated 96 well plates. […] Cells were then incubated with alexa488 conjugated anti-hFc Fab secondary antibodies for 30 minutes on ice followed by two additional PBS washes. Antibodies were allowed to internalize for 1 h at 37° C. in internalization buffer (PBS+2% FBS) or remained at 4° C. Cells were fixed in 4% formaldehyde, nuclei were stained with DRAQ5 (Cell signaling), and images were acquired on the ImageXpress micro XL (Molecular Devices). Whole cell alexa488 intensity at 37° C. (Binding) and the alexa488 intensity in the intracellular vesicles at 37° C. (Internalization) were determined via Columbus image analysis software (PerkinElmer).

| Binder | % Internalization relative to Control I (T47D cells, imaging) [1] [%] | FACS Cell Binding (Fold Above Background) [2] [fold] | % Total Binding relative to Control I [3] [%] |
| --- | --- | --- | --- |
| H1H6774P (antibody, human IgG1, V domains shown, human IgG1 Fc (H1H)) VH: EVQLVESGGGLAQPGGSLRLSCVASGFTFSTYWMSWVRQAPGKGLDWVGNIKQDGSEQNYVDSVRGRFTISRDNAKNSLFLQMNSLRAEDTGVYYCATLLTKGDYWGQGTLVTVSS VL: DIQMTQSPSSLSASVGDSVTITCRASQDISNYLDWFQQKPGKAPKSLIYAASILQGGVPSRFSGSGYGTDFTLTISSLQPEDFATYYCRQYKTYPFTFGPGTKVDIK | 162 | 1 | 174 |
| H1H6793P (antibody, human IgG1, V domains shown, human IgG1 Fc (H1H)) VH: EVQLVESGGGLVQPGGSLRLSCAASGFSFSIYAMSWFRQAPGKGLEWVSAINGRGDGTHYADSVKGRFTISRDNSKTTLYLQMSSLRAEDTAVYYCAKPVMSTNGFDIWGQGTMVTVSS VL: DIQMTQSPSTLSASVGDRVTITCRASQSISSWLAWYQLKPGKAPKLLIYKASNLESGVPSRFSGSGSGTEFTLTISSLQPDDFATYYCQQYNIYWTFGQGTKVEIK | 180 | 2 | 178 |
| H1H6765P (antibody, human IgG1, V domains shown, human IgG1 Fc (H1H)) VH: EVQLVESGGGVVRPGGSLRLSCVGSGFSFDDHGMNWVRQGPGKGLEWVSGFNWNGGSTNYAESVKGRFTISRDNARNSLFLQMNSLRAEDTALYYCVRGRSGWFNDAFDVWGPGTMVTVSS VL: EIVLTQSPGTLSLSPGERATLSCRASQTINSNYLAWYRQKPGQTPRLLIYGTSSRATGIPDRFSGSGSGTDFSLTISRLEPEDFAVFYCQQYAGLPTFGPGTKVDIK | 186 | 1 | 191 |
| H1H6976N (antibody, human IgG1, V domains shown, also called H2M6976N) VH: EVQLLESGGGFVQPGGSLRLSCAASGFTFSSYAMSWVRQAPGKGLEWVSIISSNGRYTYYADSVKGRFTISRDNSKNTLYLQMNSLRAEDTAVYYCATVTGDWFDPWGQGTLVTVSS VL: DIQLTQSPSFLSASVGDRVTITCWASQDIDISLAWYQQKPGKAPKLLIYAASTLQSGVPSKFSGSGSGTDFTLTISSLQPEDFSTYYCQQLNSYPITFGQGTRLDIK | 170 | 1 | 180 |
| H1H6762P (antibody, human IgG1, V domains shown, human IgG1 Fc (H1H)) VH: QVQLVESGGGVVQPGRSLRLSCAASGFTFSHYGMVWVRQPPGKGLEWVALISFDGTTKYYADSVKGRFTISRDNSKNTLYLQMNSLRAEDTAVYFCVGAIAAAAFDLWGRGTLVTVSS VL: EIVMTQSPATLSVSPGERATLSCRASQSVSSDLAWYQQKPGQAPRLLIYSASARATGIPARFTGSGSGTDFTLTISSLQSEDFAVYYCQQYNNWPMYTFGQGTKLEIK | 186 | 2 | 177 |
| H1H6958N2 (antibody, human IgG1, V domains shown, also called H2M6958N2) VH: QVQLVESGGGVVQPGRSLRLSCGASGFTFRNYGMQWVRQGPGKGLEWVTLISFDGNDKYYADSVKGRFTISRDNSKNTLFLQMNSLRTEDTAVYYCARGGDFDYWGQGTLVTVSS VL: DIQMTQSPSSLSASVGDRVTITCRASQDIRKDLGWYQQKPGKAPKRLIYAASSLHSGVPSRFSGSGSGTEFTLTISSLQPEDFATYYCLQHNSYPMYTFGQGTKLEIK | 169 | 1 | 162 |
| H1H6803P (antibody, human IgG1, V domains shown, human IgG1 Fc (H1H)) VH: EVQLVESGGGVVRPGGSLRLSCAASGFKFDDYGMTWVRHVPGKGLEWVSGINWNGGRTGYTDSVKGRFTISRDNAKNSLYLQMNSLRAEDTALYHCAGARRDAFDIWGQGTMVTVSS VL: DIQMTQSPSSLSASIGDRVTITCRASQNIIKYLNWYQQNAGKAPKLLIYTASSLQSGVPSRFSGSGSGTDFTLTISSLQPEDFATYYCQQSSSSPYTFGQGTKLEIK | 190 | 1 | 206 |
| H1H6975N (antibody, human IgG1, V domains shown, also called H2M6975N) VH: EVHLVESGGGLVQPGGSLRLSCAASGFTFSSYEMNWVRQTPGKGLEWISHISSRSVIIYYADSVKGRFTISRDNAKNSLFLQMNSLRAEDTAVYFCAGITIFGIPEYWGQGTLVTVSS VL: EIVLTQSPATLSLSPGERATLSCRASQSVSSYFAWYQQKPGQAPRLLIYDASSRATGIPTRFSGSGSGTDFTLTISSLEPEDFAVYYCQQRSSWPITFGQGTRLEIK | 214 | 1 | 226 |
| H1H6785P (antibody, human IgG1, V domains shown, human IgG1 Fc (H1H)) VH: EVQLVESGGGLVQPGGSLRLSCAASGFTFSSYEMNWVRQAPGKGLEWISYISSRGGTIYYADSIKGRFTIYRDNARNSLYLQMNSLRAEDTAIYYCARLSGVDIFDIWGQGTMVTVSS VL: DIQMTQSPSSLSASVGDRVTITCRASQGISNYLAWYQQKPGKVPKLLIYFASTLQSGVPSRFSGGGSGTDFTLTISSLQPEDVATYYCQRYNSAPLTFGGGTKVEIK | 169 | 2 | 168 |
| H1H6781P (antibody, human IgG1, V domains shown, human IgG1 Fc (H1H)) VH: EVQLVESGGDLVQPGESLRLSCTASGFTFNSYEMNWVRQAPGKGLEWVSYISSSGGTKYYVDSVKGRFTISRDNAKKSLYLQMNSLRADDTALYYCARLNGVDVFDIWGQGTMVTVSS VL: DIQMTQSPSSLSASVGDRVTITCRASQDIFNYLAWFQQKPGKVPELLISAASTLQSGVPSRFSGSGSGTYFTLTISSLQPEDIATYYCQRYNSAPLTFGGGTKVEIK | 165 | 1 | 166 |
| H1H6782P (antibody, human IgG1, V domains shown, human IgG1 Fc (H1H)) VH: EVQLVESGGGLVQPGRSLRLSCAASGFTFDDYAMHWVRQAPGKGLEWVSGIIWNSGHIGYGDSVKGRFTISRDNAKKSLYLQMNSLRAEDTALYYCARDSGRYQSYFDYWGQGTLVTVSS VL: DIQMTQSPSTLSASVGDRVTITCRASHIISSWLAWYQQKPGKAPKVLIFKASSLESGVPSRFSGSGSGTEFTLTISSLQPDDFATYYCQQYNTYSRTFGQGTKVEIK | 179 | 4 | 210 |
| H1H6800P (antibody, human IgG1, V domains shown, human IgG1 Fc (H1H)) VH: EVQLVESGGGLVQPGRSLRLSCAASGFTFDGYAMHWVRQGPGKGLEWVSGISWYSDTLGYADSVKGRFTISRDNAKNSLYLQMNSLRTEDTAFYYCAKISSSGWAFDYWGQGTLVTVSS VL: EIVLTQSPGTLSLSPGERATLSCRASHSVSSAYLAWYQQKPGQTPRLLIYGTSSRATGIPDRFSGSGSGTDFTLTISRLEPEDFAVYYCQQYGSSPLFTFGPGTKVDIK | 198 | 1 | 187 |
| H1H6967N (antibody, human IgG1, V domains shown, also called H2M6967N) VH: EVQLVESGGDLVHPGRSLRLSCAASGFPFDEYAMHWVRQVPGKGLEWVSGISWSNNNIGYADSVKGRFTISRDNAKNSLYLQMNSLRPEDTAFYYCAKSGIFDSWGQGTLVTVSS VL: EIVMTQSPATLSVSPGERATLSCRASQSVSRDLAWYQQKPGQAPRLLIHGASTRATGIPARFSGSGSGAEFTLIISSLQSEDFAVYYCQQYNNWPLTFGGGTKVEIK | 169 | 2 | 159 |
